Results from patent US20070014803A1 (ARBOR VITA, published 2007).

B1: PICK1 F.L., GST fusion (other)
chain: MFADLDYDIEEDKLGIPTVPGKVTLQKDAQNLIGISIGGGAQYCPCLYIVQVFDNTPAALDGTVAAGDEITGVNGRSIKGKTKVEVAKMIQEVKGEVTIHYNKLQADPKQGMSLDIVLKKVKHRLVENMSSGTADALGLSRAILCNDGLVKRLEELERTAELYKGMTEHTKNLLRAFYELSQTHRAFGDVFSVIGVREPQPAASEAFVKFADAHRSIEKFGIRLLKTIKPMLTDLNTYLNKAIPDTRLTIKKYLDVKFEYLSYCLKVKEMDDEEYSCIALGEPLYRVSTGNYEYRLILRCRQEARARFSQMRKDVLEKMELLDQKHVQDIVFQLQRLVSTMSKYYNDCYAVLRDADVFPIEVDLAHTTLAYGLNQEEFTDGEEEEEEEDTAAGEPSRDTRGAAGPLDKGGSWCDS
B2: INADL d3, GST fusion (other)
chain: NVELVRKDGQSLGIRIVGYVGTSHTGEASGIYVKSIIPGSAAYHNGHIQVNDKIVAVDGVNIQGFANHDVVEVLRNAGQVVHLTLVRRK
notes: also called INADL (PDZ #3)
B3: KIAA1284, GST fusion (other)
chain: KDVNVYVNPKKLTVIKAKEQLKLLEVLVGIIHQTKWSWRRTGKQGDGERLVVHGLLPGGSAMKSGQVLIGDVLVAVNDVDVTTENIERVLSCIPGPMQVKLTFENAYDVKRET
B4: EZRIN Binding Protein 50 PDZ #1, GST fusion (other)
chain: LCCLEKGPNGYGFHLHGEKGKLGQYIRLVEPGSPAEKAGLLAGDRLVEVNGENVEKETHQQVVSRIRAALNAVRLLVVDPE
notes: also called EBP50 d1; EBP50 (PDZ #1)
B5: KIAA0807 MAST2, GST fusion (other)
chain: ISALGSMRPPIIIHRAGKKYGFTLRAIRVYMGDSDVYTVHHMVWHVEDGGPASEAGLRQGDLITHVNGEPVHGLVHTEVVELILKSGNKVAISTTPLENSS
B6: KIAA0316, GST fusion (other)
chain: IPPAPRKVEMRRDPVLGFGFVAGSEKPVVVRSVTPGGPSEGKLIPGDQIVMINDEPVSAAPRERVIDLVRSCKESILLTVIQPYPSPKSEFIVTD
B7: AIPC d1, GST fusion (other)
chain: LIRPSVISIIGLYKEKGKGLGFSIAGGRDCIRGQMGIFVKTIFPNGSAAEDGRLKEGDEILDVNGIPIKGLTFQEAIHTFKQIRSGLFVLTVRTKLVSPSLTNSS
notes: also called AIPC (PDZ #1)
B8: MAGI1 d1, GST fusion (other)
chain: PSELKGKFIHTKLRKSSRGFGFTVVGGDEPDEFLQIKSLVLDGPAALDGKMETGDVIVSVNDTCVLGHTHAQVVKIFQSIPIGASVDLELCRGYPLPFDPDGIHRD
notes: also called MAGI1 (PDZ #1)
B9: KIAA0751 RIM2, GST fusion (other)
chain: TLNEEHSHSDKHPVTWQPSKDGDRLIGRILLNKRLKDGSVPRDSGAMLGLKVVGGKMTESGRLCAFITKVKKGSLADTVGHLRPGDEVLEWNGRLLQGATFEEVYNIILESKPEPQVELVVSRPIG

Legend:
HIV-1 Peptide 1905 [1] = target: T1, HIV-1 Peptide 1905 (HIV-1); assay: MATRIX screen of GST-PDZ array, modified G assay ELISA; 'Intensity of Hit'
T1 construct: also called HIV peptide 1905
Experimental: (§1) The primary MATRIX screen against all PDZ proteins in the library was performed under pre-incubation conditions, which are a modification of the G assay. A pre-incubation assay incubates the peptide with the HRP-streptavidin before addition of the mixture to the PDZ-coated plate. The subsequent titrations of the peptide against the PDZs of interest were performed under normal ELISA G assay conditions. In normal conditions the peptide is incubated on the PDZ coated plate before the later addition of the HRP-streptavidin.
(§2) Prepare peptides in half of volume need with double of desired concentration. […] Dilute HRP (1:1000) in another half of volume (same volume with peptide) then mix with peptides. […] Incubate the peptide-HRP mixtures for 20 minutes at RT 8. Wash plate 3× with cold PBS* 9. Add peptide-HRP mixtures at 50 μl per well (write time on plate) 10. […] Turn on plate reader and prepare files 12. Promptly wash plate 5× with room temperature PBS 13. Add 100 μl/well TMB substrate (write time on plate) 14. Incubate in dark at room temp for a maximum of 30 minutes 15. Stop reaction with 100 μl of 0.18M H₂SO₄, 30 min. after adding TMB 16. Take last reading at 450 nm soon after stopping reaction

HIV-1 Peptide 1904 [2] = target: T2, HIV-1 Peptide 1904 (HIV-1); assay: as above
T2 construct: also called HIV peptide 1904
Experimental: as §1, §2

HIV-1 Peptide 1905 [3] = target: T1, HIV-1 Peptide 1905; assay: G assay ELISA (FIG. 4C): GST-PDZ on anti-GST plate, biotinylated peptide titrated, streptavidin-HRP
HIV-1 Peptide 1905 [4] = target: T1, HIV-1 Peptide 1905; assay: modified G assay ELISA, third experiment (text prints 'FIG. 3C' a second time, read as FIG. 5C)
HIV-1 Peptide 1904 [5] = target: T2, HIV-1 Peptide 1904; assay: G assay ELISA (FIG. 1C): GST-PDZ on anti-GST plate, biotinylated peptide titrated, streptavidin-HRP
HIV-1 Peptide 1904 [6] = target: T2, HIV-1 Peptide 1904; assay: modified G assay ELISA (FIG. 2C): peptide pre-incubated with streptavidin-HRP, titrated on GST-PDZ plate
HIV-1 Peptide 1905 [7] = target: T1, HIV-1 Peptide 1905; assay: modified G assay ELISA (FIG. 3C): peptide pre-incubated with streptavidin-HRP, titrated on GST-PDZ plate

Binder | binding result (HIV-1 Peptide 1905 [1]) | binding result (HIV-1 Peptide 1904 [2]) | further results
B1 | binds |  | 
B2 |  | binds | 
B3 | binds | binds | 
B4 | binds |  | 
B5 | binds | binds | 
B6 |  | binds | 
B7 |  | binds | 
B8 |  | binds | 
B9 |  |  | EC50 (HIV-1 Peptide 1905 [3]): 182 nM; EC50 (HIV-1 Peptide 1905 [4]): 68 nM; EC50 (HIV-1 Peptide 1904 [5]): 410 nM; EC50 (HIV-1 Peptide 1904 [6]): 30 nM; EC50 (HIV-1 Peptide 1905 [7]): 14 nM
